IntAct's records for PubMed 31515488

B1: Scaffold protein ILK (Homo sapiens), Q13418 (parent)
chain: MDDIFTQCREGNAVAVRLWLDNTENDLNQGDDHGFSPLHWACREGRSAVVEMLIMRGARINVMNRGDDTPLHLAASHGHRDIVQKLLQYKADINAVNEHGNVPLHYACFWGQDQVAEDLVANGALVSICNKYGEMPVDKAKAPLRELLRERAEKMGQNLNRIPYKDTFWKGTTRTRPRNGTLNKHSGIDFKQLNFLTKLNENHSGELWKGRWQGNDIVVKVLKVRDWSTRKSRDFNEECPRLRIFSHPNVLPVLGACQSPPAPHPTLITHWMPYGSLYNVLHEGTNFVVDQSQAVKFALDMARGMAFLHTLEPLIPRHALNSRSVMIDEDMTARISMADVKFSFQCPGRMYAPAWVAPEALQKKPEDTNRRSADMWSFAVLLWELVTREVPFADLSNMEIGMKVALEGLRPTIPPGISPHVCKLMKICMNEDPAKRPKFDMIVPILEKMQDK
partner: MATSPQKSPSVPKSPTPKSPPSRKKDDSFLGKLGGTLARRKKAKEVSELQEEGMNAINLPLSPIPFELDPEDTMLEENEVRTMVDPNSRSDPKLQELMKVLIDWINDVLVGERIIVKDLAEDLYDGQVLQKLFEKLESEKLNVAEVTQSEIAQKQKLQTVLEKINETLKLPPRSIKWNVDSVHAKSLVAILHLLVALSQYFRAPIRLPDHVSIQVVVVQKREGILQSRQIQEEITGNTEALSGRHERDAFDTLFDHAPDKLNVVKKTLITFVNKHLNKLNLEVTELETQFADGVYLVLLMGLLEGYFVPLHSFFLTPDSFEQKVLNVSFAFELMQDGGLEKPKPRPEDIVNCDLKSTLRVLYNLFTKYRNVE
B2: Forkhead box protein P3 (Homo sapiens), Q9BZS1 (parent)
chain: MPNPRPGKPSAPSLALGPSPGASPSWRAAPKASDLLGARGPGGTFQGRDLRGGAHASSSSLNPMPPSQLQLPTLPLVMVAPSGARLGPLPHLQALLQDRPHFMHQLSTVDAHARTPVLQVHPLESPAMISLTPPTTATGVFSLKARPGLPPGINVASLEWVSREPALLCTFPNPSAPRKDSTLSAVPQSSYPLLANGVCKWPGCEKVFEEPEDFLKHCQADHLLDEKGRAQCLLQREMVQSLEQQLVLEKEKLSAMQAHLAGKMALTKASSVASSDKGSCCIVAAGSQGPVVPAWSGPREAPDSLFAVRRHLWGSHGNSTFPEFLHNMDYFKFHNMRPPFTYATLIRWAILEAPEKQRTLNEIYHWFTRMFAFFRNHPATWKNAIRHNLSLHKCFVRVESEKGAVWTVDELEFRKKRSQRPSRCSNPTPGP
B3: E3 ubiquitin-protein ligase SH3RF2 (Homo sapiens), Q8TEC5 (parent)
chain: MDDLTLLDLLECPVCFEKLDVTAKVLPCQHTFCKPCLQRVFKAHKELRCPECRTPVFSNIEALPANLLLVRLLDGVRSGQSSGRGGSFRRPGTMTLQDGRKSRTNPRRLQASPFRLVPNVRIHMDGVPRAKALCNYRGQNPGDLRFNKGDIILLRRQLDENWYQGEINGISGNFPASSVEVIKQLPQPPPLCRALYNFDLRGKDKSENQDCLTFLKDDIITVISRVDENWAEGKLGDKVGIFPILFVEPNLTARHLLEKNKGRQSSRTKNLSLVSSSSRGNTSTLRRGPGSRRKVPGQFSITTALNTLNRMVHSPSGRHMVEISTPVLISSSNPSVITQPMEKADVPSSCVGQVSTYHPAPVSPGHSTAVVSLPGSQQHLSANMFVALHSYSAHGPDELDLQKGEGVRVLGKCQDGWLRGVSLVTGRVGIFPNNYVIPIFRKTSSFPDSRSPGLYTTWTLSTSSVSSQGSISEGDPRQSRPFKSVFVPTAIVNPVRSTAGPGTLGQGSLRKGRSSMRKNGSLQRPLQSGIPTLVVGSLRRSPTMVLRPQQFQFYQPQGIPSSPSAVVVEMGSKPALTGEPALTCISRGSEAWIHSAASSLIMEDKEIPIKSEPLPKPPASAPPSILVKPENSRNGIEKQVKTVRFQNYSPPPTKHYTSHPTSGKPEQPATLKASQPEAASLGPEMTVLFAHRSGCHSGQQTDLRRKSALGKATTLVSTASGTQTVFPSK
B4: NIF3-like protein 1 (Homo sapiens), Q9GZT8 (parent)
chain: MLSSCVRPVPTTVRFVDSLICNSSRSFMDLKALLSSLNDFASLSFAESWDNVGLLVEPSPPHTVNTLFLTNDLTEEVMEEVLQKKADLILSYHPPIFRPMKRITWNTWKERLVIRALENRVGIYSPHTAYDAAPQGVNNWLAKGLGACTSRPIHPSKAPNYPTEGNHRVEFNVNYTQDLDKVMSAVKGIDGVSVTSFSARTGNEEQTRINLNCTQKALMQVVDFLSRNKQLYQKTEILSLEKPLLLHTGMGRLCTLDESVSLATMIDRIKRHLKLSHIRLALGVGRTLESQVKVVALCAGSGSSVLQGVEADLYLTGEMSHHDTLDAASQGINVILCEHSNTERGFLSDLRDMLDSHLENKINIILSETDRDPLQVV
partner: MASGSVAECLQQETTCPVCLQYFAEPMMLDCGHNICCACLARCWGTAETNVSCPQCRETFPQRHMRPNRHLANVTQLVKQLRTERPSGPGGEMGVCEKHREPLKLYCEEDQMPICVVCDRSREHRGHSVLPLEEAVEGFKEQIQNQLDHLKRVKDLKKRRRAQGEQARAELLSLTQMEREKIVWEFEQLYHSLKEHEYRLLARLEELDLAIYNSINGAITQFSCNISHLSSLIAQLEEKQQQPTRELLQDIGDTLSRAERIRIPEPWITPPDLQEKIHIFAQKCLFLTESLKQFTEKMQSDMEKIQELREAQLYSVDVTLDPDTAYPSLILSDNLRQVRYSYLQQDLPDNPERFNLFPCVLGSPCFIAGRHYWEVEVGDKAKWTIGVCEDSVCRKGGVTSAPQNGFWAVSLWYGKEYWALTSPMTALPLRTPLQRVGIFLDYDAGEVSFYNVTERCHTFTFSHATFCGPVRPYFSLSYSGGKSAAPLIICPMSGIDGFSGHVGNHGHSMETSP
B5: Centrosomal protein of 55 kDa (Homo sapiens), Q53EZ4 (parent)
chain: MSSRSTKDLIKSKWGSKPSNSKSETTLEKLKGEIAHLKTSVDEITSGKGKLTDKERHRLLEKIRVLEAEKEKNAYQLTEKDKEIQRLRDQLKARYSTTTLLEQLEETTREGERREQVLKALSEEKDVLKQQLSAATSRIAELESKTNTLRLSQTVAPNCFNSSINNIHEMEIQLKDALEKNQQWLVYDQQREVYVKGLLAKIFELEKKTETAAHSLPQQTKKPESEGYLQEEKQKCYNDLLASAKKDLEVERQTITQLSFELSEFRRKYEETQKEVHNLNQLLYSQRRADVQHLEDDRHKTEKIQKLREENDIARGKLEEEKKRSEELLSQVQFLYTSLLKQQEEQTRVALLEQQMQACTLDFENEKLDRQHVQHQLHVILKELRKARNQITQLESLKQLHEFAITEPLVTFQGETENREKVAASPKSPTAALNESLVECPKCNIQYPATEHRDLLVHVEYCSK
B6: Protein boule-like (Homo sapiens), Q8N9W6 (parent)
chain: MQTDSLSPSPNPVSPVPLNNPTSAPRYGTVIPNRIFVGGIDFKTNESDLRKFFSQYGSVKEVKIVNDRAGVSKGYGFVTFETQEDAQKILQEAEKLNYKDKKLNIGPAIRKQQVGIPRSSIMPAAGTMYLTTSTGYPYTYHNGVAYFHTPEVTSVPPPWPSRSVCSSPVMVAQPIYQQPAYHYQATTQYLPGQWQWSVPQPSASSAPFLYLQPSEVIYQPVEIAQDGGCVPPPLSLMETSVPEPYSDHGVQATYHQVYAPSAITMPAPVMQPEPIKTVWSIHY
partner: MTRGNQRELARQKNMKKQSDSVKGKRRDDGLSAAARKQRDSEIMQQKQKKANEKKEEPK
B7: WASH complex subunit 3 (Homo sapiens), Q9Y3C0 (parent)
chain: MDEDGLPLMGSGIDLTKVPAIQQKRTVAFLNQFVVHTVQFLNRFSTVCEEKLADLSLRIQQIETTLNILDAKLSSIPGLDDVTVEVSPLNVTSVTNGAHPEATSEQPQQNSTQDSGLQESEVSAENILTVAKDPRYARYLKMVQVGVPVMAIRNKMISEGLDPDLLERPDAPVPDGESEKTVEESSDSESSFSD
B8: PHD finger protein 1 (Homo sapiens), O43189 (parent)
chain: MAQPPRLSRSGASSLWDPASPAPTSGPRPRLWEGQDVLARWTDGLLYLGTIKKVDSAREVCLVQFEDDSQFLVLWKDISPAALPGEELLCCVCRSETVVPGNRLVSCEKCRHAYHQDCHVPRAPAPGEGEGTSWVCRQCVFAIATKRGGALKKGPYARAMLGMKLSLPYGLKGLDWDAGHLSNRQQSYCYCGGPGEWNLKMLQCRSCLQWFHEACTQCLSKPLLYGDRFYEFECCVCRGGPEKVRRLQLRWVDVAHLVLYHLSVCCKKKYFDFDREILPFTSENWDSLLLGELSDTPKGERSSRLLSALNSHKDRFISGREIKKRKCLFGLHARMPPPVEPPTGDGALTSFPSGQGPGGGVSRPLGKRRRPEPEPLRRRQKGKVEELGPPSAVRNQPEPQEQRERAHLQRALQASVSPPSPSPNQSYQGSSGYNFRPTDARCLPSSPIRMFASFHPSASTAGTSGDSGPPDRSPLELHIGFPTDIPKSAPHSMTASSSSVSSPSPGLPRRSAPPSPLCRSLSPGTGGGVRGGVGYLSRGDPVRVLARRVRPDGSVQYLVEWGGGGIF

Variants of: B1
Conditions: with parva_human PARVA

Variant | effect of a mutation on the interaction
A262V | with no effect
Y278H | disrupting interaction strength
L311I | with no effect
K223N | disrupting interaction strength
R46H | with no effect

Now from value to variant:

effect of a mutation on the interaction | Variant
disrupting interaction strength | R349H
with no effect | L314H
with no effect | M425I
with no effect | V340G
with no effect | Q362H

Variants of: B2
Conditions: with pr20e_human PRR20E

effect of a mutation on the interaction | Variant
with no effect | S59C

Variants of: B2
Conditions: with rbpms_human RBPMS

effect of a mutation on the interaction | Variant
with no effect | S59C

Variants of: B3
Conditions: with rbpms_human RBPMS

effect of a mutation on the interaction | Variant
with no effect | V687I

Variants of: B3
Conditions: with amol2_human AMOTL2, Q9Y2J4
Chain of amol2_human AMOTL2, Q9Y2J4 (Q9Y2J4 whole entry): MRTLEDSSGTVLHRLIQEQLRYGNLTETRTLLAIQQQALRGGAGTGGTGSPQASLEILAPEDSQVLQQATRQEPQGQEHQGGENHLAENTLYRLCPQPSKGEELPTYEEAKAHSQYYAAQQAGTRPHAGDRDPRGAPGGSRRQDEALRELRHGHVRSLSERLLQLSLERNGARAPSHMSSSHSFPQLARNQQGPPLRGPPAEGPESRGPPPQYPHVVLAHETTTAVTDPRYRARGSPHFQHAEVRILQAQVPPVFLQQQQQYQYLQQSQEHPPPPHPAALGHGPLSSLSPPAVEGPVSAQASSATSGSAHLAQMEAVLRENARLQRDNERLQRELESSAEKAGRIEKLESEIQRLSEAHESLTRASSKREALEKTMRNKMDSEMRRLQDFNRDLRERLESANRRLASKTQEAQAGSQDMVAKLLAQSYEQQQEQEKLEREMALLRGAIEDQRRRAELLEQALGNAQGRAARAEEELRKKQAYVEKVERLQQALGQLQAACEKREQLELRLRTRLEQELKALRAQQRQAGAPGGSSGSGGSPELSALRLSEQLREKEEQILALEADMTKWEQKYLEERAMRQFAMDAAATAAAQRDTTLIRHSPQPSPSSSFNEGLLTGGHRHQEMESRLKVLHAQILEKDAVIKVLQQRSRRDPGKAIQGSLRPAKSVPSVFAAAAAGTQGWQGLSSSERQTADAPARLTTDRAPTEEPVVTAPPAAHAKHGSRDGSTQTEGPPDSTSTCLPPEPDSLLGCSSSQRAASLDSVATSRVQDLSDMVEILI

effect of a mutation on the interaction | Variant
with no effect | V687I

Variants of: B3
Conditions: with mtus2_human MTUS2, Q5JR59

effect of a mutation on the interaction | Variant
with no effect | V687I

Variants of: B4
Conditions: with tri27_human TRIM27, P14373

effect of a mutation on the interaction | Variant
disrupting interaction strength | T324I

Variants of: B5
Conditions: with pdc6i_human PDCD6IP

Variant | effect of a mutation on the interaction
L59F | with no effect
H57Q | with no effect
A244P | with no effect
R138Q | with no effect
C236R | with no effect

The remaining lines, values ahead:

effect of a mutation on the interaction | Variant
with no effect | R348K
with no effect | E321K

Variants of: B5
Conditions: with dpolm_human POLM

effect of a mutation on the interaction | Variant
with no effect | R348K
with no effect | H57Q
with no effect | A244P
with no effect | C236R

Variants of: B5
Conditions: with tead4_human TEAD4, Q15561
Chain of tead4_human TEAD4, Q15561 (Q15561 whole entry): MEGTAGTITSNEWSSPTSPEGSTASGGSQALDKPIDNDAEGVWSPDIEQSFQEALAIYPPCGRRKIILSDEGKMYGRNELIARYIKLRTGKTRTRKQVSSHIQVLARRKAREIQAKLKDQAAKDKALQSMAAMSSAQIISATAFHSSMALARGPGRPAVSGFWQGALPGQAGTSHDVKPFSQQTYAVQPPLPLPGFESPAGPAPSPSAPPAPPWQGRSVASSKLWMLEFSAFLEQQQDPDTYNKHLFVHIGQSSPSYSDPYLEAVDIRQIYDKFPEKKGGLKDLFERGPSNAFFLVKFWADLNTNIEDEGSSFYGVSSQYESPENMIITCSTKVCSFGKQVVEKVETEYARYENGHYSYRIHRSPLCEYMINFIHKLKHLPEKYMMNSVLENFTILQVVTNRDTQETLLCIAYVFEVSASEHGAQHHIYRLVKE

effect of a mutation on the interaction | Variant
with no effect | R348K
with no effect | H57Q
with no effect | A244P
with no effect | C236R

Variants of: B5
Conditions: with anx11_human ANXA11, P50995
Chain of anx11_human ANXA11, P50995 (P50995 whole entry): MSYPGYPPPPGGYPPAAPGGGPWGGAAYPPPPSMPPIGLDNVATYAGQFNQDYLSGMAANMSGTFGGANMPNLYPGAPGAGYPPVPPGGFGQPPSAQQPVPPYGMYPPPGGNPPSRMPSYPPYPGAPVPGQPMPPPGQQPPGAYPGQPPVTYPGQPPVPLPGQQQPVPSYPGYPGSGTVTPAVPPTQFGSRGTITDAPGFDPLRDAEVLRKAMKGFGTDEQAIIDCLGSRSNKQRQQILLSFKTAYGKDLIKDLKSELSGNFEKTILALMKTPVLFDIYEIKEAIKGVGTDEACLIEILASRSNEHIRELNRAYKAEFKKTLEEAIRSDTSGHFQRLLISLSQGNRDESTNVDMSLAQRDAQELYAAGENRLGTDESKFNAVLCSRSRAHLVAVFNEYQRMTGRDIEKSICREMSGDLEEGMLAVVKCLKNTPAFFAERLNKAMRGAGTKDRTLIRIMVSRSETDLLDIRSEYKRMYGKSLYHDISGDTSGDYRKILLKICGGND

effect of a mutation on the interaction | Variant
with no effect | R348K
with no effect | H57Q
disrupting interaction strength | A244P
with no effect | C236R

Variants of: B6
Conditions: with serf2_human SERF2, P84101

effect of a mutation on the interaction | Variant
with no effect | M270I
with no effect | V78I
disrupting interaction strength | S9Y

Variants of: B7
Conditions: with optn_human OPTN

effect of a mutation on the interaction | Variant
with no effect | F44L

Variants of: B7
Conditions: with ift20_human IFT20, Q8IY31
Chain of ift20_human IFT20, Q8IY31 (Q8IY31 whole entry): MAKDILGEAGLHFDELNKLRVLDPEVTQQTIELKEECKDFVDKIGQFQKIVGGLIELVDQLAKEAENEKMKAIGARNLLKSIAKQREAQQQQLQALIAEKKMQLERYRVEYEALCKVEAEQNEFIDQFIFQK

effect of a mutation on the interaction | Variant
with no effect | F44L

Variants of: B7
Conditions: with abi2_human ABI2, Q9NYB9
Chain of abi2_human ABI2, Q9NYB9 (Q9NYB9 whole entry): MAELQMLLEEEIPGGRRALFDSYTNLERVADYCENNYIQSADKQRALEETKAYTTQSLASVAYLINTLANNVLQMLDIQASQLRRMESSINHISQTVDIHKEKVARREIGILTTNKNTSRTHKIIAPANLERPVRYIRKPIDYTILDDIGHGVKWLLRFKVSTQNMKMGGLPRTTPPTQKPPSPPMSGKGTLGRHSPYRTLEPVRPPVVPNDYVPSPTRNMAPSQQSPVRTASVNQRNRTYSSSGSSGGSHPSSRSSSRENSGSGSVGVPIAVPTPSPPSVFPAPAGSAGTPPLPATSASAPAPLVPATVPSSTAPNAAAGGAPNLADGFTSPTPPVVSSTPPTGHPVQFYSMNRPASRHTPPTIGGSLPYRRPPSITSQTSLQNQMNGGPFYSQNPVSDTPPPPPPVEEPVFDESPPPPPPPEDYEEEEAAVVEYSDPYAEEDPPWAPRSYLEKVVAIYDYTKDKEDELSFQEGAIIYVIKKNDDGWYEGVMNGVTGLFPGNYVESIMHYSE

effect of a mutation on the interaction | Variant
disrupting interaction strength | F44L

Variants of: B7
Conditions: with ndc80_human NDC80, O14777
Chain of ndc80_human NDC80, O14777 (O14777 whole entry): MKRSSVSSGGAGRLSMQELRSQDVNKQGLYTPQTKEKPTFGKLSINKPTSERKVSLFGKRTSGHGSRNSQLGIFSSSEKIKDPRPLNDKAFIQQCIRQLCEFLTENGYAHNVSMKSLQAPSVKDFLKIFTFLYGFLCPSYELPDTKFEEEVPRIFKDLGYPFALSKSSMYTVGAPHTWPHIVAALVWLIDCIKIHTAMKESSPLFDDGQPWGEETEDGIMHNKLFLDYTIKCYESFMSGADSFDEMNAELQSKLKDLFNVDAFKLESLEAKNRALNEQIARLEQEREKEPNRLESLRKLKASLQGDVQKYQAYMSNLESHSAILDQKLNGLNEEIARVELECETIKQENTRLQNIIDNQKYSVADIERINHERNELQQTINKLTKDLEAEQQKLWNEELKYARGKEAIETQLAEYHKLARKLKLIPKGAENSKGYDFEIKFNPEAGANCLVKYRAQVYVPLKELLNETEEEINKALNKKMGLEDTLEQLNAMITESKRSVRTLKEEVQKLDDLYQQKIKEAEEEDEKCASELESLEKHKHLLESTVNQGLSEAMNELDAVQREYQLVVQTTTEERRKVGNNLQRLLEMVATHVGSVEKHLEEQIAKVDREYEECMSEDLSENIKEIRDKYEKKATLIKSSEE

effect of a mutation on the interaction | Variant
with no effect | F44L

Variants of: B7
Conditions: with pcm1_human PCM1, Q15154

effect of a mutation on the interaction | Variant
with no effect | F44L

Variants of: B7
Conditions: with mcrs1_human MCRS1, Q96EZ8
Chain of mcrs1_human MCRS1, Q96EZ8 (Q96EZ8 whole entry): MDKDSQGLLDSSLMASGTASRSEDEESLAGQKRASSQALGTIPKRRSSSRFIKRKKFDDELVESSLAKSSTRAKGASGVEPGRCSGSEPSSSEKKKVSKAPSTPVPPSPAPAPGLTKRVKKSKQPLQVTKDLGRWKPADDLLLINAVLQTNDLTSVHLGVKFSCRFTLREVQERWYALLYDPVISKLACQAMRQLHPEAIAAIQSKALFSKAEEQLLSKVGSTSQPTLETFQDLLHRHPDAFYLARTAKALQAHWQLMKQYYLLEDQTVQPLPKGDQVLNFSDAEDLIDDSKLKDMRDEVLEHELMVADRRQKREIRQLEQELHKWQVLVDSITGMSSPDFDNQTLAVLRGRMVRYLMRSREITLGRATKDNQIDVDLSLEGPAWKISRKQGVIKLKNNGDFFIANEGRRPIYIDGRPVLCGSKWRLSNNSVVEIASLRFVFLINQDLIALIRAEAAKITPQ

effect of a mutation on the interaction | Variant
with no effect | F44L

Variants of: B7
Conditions: with txlna_human TXLNA

effect of a mutation on the interaction | Variant
with no effect | F44L

Variants of: B8
Conditions: with dhb14_human HSD17B14, Q9BPX1
Chain of dhb14_human HSD17B14, Q9BPX1 (Q9BPX1 whole entry): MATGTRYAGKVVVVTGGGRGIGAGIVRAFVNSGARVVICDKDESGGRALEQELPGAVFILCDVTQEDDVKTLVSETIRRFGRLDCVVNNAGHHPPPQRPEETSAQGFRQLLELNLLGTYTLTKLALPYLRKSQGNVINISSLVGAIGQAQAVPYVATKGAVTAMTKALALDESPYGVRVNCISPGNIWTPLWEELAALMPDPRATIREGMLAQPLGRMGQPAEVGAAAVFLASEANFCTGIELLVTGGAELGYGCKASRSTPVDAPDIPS

effect of a mutation on the interaction | Variant
with no effect | S14L

Variants of: B8
Conditions: with tri23_human TRIM23, P36406
Chain of tri23_human TRIM23, P36406 (P36406 whole entry): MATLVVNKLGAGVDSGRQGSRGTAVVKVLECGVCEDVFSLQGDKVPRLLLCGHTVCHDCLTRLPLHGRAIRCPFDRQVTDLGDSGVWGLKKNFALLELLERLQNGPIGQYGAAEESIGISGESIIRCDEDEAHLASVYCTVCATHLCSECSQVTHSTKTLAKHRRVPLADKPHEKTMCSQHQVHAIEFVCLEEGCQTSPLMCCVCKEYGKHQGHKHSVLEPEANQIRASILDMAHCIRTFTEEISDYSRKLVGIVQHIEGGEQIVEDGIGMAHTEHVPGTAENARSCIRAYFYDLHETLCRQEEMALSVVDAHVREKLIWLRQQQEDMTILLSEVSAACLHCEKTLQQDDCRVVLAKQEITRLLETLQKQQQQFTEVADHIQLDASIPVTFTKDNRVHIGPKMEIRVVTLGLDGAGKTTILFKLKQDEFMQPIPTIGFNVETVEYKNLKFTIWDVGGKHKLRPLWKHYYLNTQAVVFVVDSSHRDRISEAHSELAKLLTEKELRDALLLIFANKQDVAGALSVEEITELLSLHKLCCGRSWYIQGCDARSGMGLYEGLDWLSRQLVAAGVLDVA

effect of a mutation on the interaction | Variant
with no effect | S14L

Variants of: B8
Conditions: with pdli7_human PDLIM7, Q9NR12
Chain of pdli7_human PDLIM7, Q9NR12 (Q9NR12 whole entry): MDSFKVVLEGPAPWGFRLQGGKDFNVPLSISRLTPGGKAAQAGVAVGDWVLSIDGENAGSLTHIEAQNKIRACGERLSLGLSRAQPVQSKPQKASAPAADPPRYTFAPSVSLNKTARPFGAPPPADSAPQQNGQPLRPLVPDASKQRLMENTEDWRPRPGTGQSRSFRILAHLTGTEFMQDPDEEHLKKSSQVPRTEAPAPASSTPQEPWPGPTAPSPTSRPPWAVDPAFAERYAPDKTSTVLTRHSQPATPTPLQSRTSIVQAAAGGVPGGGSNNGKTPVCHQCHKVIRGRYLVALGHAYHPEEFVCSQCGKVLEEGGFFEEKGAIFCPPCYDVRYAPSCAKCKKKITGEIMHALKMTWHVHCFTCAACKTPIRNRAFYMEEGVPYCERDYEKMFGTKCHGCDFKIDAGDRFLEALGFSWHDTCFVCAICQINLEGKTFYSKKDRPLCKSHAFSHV

effect of a mutation on the interaction | Variant
with no effect | S14L
